Data from patent US20230190870A1, “Method for Treating Lysosomal Storage Diseases with Histatin Peptides” (THE BOARD OF TRUSTEES OF THE UNIVERSITY OF ILLINOIS, priority 2020, published 2023).
Square brackets hold non-standard residues; d marks the D form. Ends that are not written are not given here. pS = N[C@@H](COP(=O)(O)O)C(=O)O

Tests used:
[1] = target: T1, TMEM97 (S2R) containing HEK293T membranes (Homo sapiens, UniProt Q5BJF2); experiment: Radioligand binding/competition assay with [3H]-DTG (UNC PDSP); details: secondary radioligand binding assay; hot ligand [3H]-DTG
T1 construct: expressed in transfected cells; host or cells: HEK293T (transient overexpression; membranes prepared by UNC PDSP)

[2] = tested on: Human corneal epithelial cells; experiment: Cell viability of BAK-treated human corneal epithelial cells; assay type: cell-based; details: benzalkonium chloride (BAK) treatment
Source text: (§1) Apoptosis. […] BAK and hOsm are standard inducers of corneal epithelial and neuronal cell death and toxicity, phenomena which are associated with ocular surface pain and chronic pain syndromes.

[3] = tested on: Human corneal epithelial cells; experiment: Calcium Green-2 calcium signaling in human corneal epithelial cells; assay type: cell-based
Method: Calcium Signaling. Human corneal epithelial cells were treated with Hst1 or Hst5, stained with Calcium Green-2, and relative fluorescence intensity was monitored at 1, 2 and 4 hours. […] This normalization of cellular calcium levels seen after toxicity from benzalkonium chloride treatment is analogous to toxic effects seen in chronic pain and other conditions. As such, histatin peptides may of use in the amelioration of chronic pain.

human corneal epithelium = experiment: Hyperosmolarity-induced apoptotic signals (Caspase 3/7); assay type: cell-based; details: 450 mOsm
Source text: as §1

Candida albicans = details: cited from earlier work
HCE cells = experiment: Immunofluorescence imaging of internalization and localization; assay type: cell-based, human; details: 24 hours after exposure
Method: Immunofluorescence Imaging. HCE cells were seeded on glass coverslips (Fisher Scientific Co.; Pittsburgh, Pa.) within a 6-well plate at 3×10^5 (cells/well) seeding density. […] HCE cells were then fixed in 3.7% paraformaldehyde, permeabilized with phosphate-buffered saline (PBS) containing 0.2% TRITON™ X-100 for 5 minutes, and washed three times for 5 minutes each time in PBS. For blocking, cells were and incubated at room temperature for 30 minutes with 5% bovine serum albumin (BSA) and 5% normal goat serum in PBS. For the Endoplasmic Reticulum (ER) staining, a Cytopainter ER staining kit (Abcam; Cambridge, Mass.) was used, following the manufacturer's instructions. After washing with 1×Assay buffer, cells were incubated with Green Detection Reagent to cover the monolayer of cells. For the detection of Hst1 and TMEM97, mouse anti-Hst1 antibody (Abcam; Cambridge, Mass.), rabbit primary antibody against Hst1 (Mybiosource; San Diego, Calif.), and rabbit anti-TMEM97 antibody (Novus Bio.; Littleton, Colo.) were used. Cells were incubated overnight at 4° C. with primary antibodies, washed three times for 5 minutes each time in PBS before incubation with secondary antibodies for 30 minutes. Cells were then counterstained with 1 μg/mL 4′,6-diamidino-2-phenylindole (DAPI) solution in PBS for 3 minutes, then washed three times with PBS containing 0.05% TRITON™ X-100 for 5 minutes each time, twice with PBS for 5 minutes each time, and once with distilled water for 10 seconds. The cells were mounted in Fluoro gel with Tris buffer (Electron Microscopy Sciences; Hatfield, Pa.) and observed under a confocal microscope (Zeiss LSM 710 Confocal Microscope; Oberkochen, Germany) using a 40×objective. Fluorescent dye sold under the tradename ALEXA FLUOR® 488 NHS Ester (Molecular Probes; Carlsbad, Calif.) was used for making Alexa-488 coupled synthetic Hst1.
Transfection/Knock-Down of TMEM97. Sub-confluent monolayers of HCE cells in grown in 35-mm six-well plates were transfected with reaction mixtures composed of 100 pmol of small interfering RNA (siRNA) to TMEM97 (Santa Cruz Biotechnology; Dallas, Tex.) for 48 hours and 5 μL of transfection reagent sold under the tradename LIPOFECTAMINE® 2000 (Invitrogen; Carlsbad, Calif.) in culture medium sold under the tradename OPTI-MEMO media (Gibco Life Technologies; Grand Island, N.Y.). Complexes were incubated for 20 minutes at 24° C. and then added to cells at 37° C. Incubation was continued for 24 to 48 hours at 37° C. in 5% CO2. Knock-down (KD) of TMEM97 was confirmed by western blot analysis using a rabbit anti-TMEM97 antibody (Novus Bio.; Littleton, Colo.). […]

[4] = target: T2, Synthetic TMEM97 (108-176) peptide; experiment: ITC, Hst1 titrated into synthetic TMEM97 (108-176); ITC, not SPR; TMEM97 (108-176)
T2 construct: Synthetic peptide; also called full C-terminal synthetic TMEM97
T2 peptide: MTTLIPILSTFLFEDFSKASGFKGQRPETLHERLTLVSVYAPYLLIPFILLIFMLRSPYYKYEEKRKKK

[5] = target: T3, Synthetic TMEM97 (144-176) peptide; experiment: ITC, Hst1 titrated into the C-terminal TMEM97 peptide (taken as 144-176); ITC, not SPR; C-terminal fragment taken as 144-176
T3 construct: Synthetic peptide; also called (predicted) cytoplasmic segment
T3 peptide: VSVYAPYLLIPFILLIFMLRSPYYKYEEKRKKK

[6] = target: T4, GST-TMEM97 (108-176), recombinant from wheat germ (Abnova) (UniProt Q5BJF2 108-176); experiment: SPR, GST-TMEM97 (108-176) immobilized on CM5 chip, Hst1 as analyte; GST-tagged wheat-germ TMEM97 (108-176); SPR
T4 construct: not shown: GST tag

[7] = target: T3, Synthetic TMEM97 (144-176) peptide; experiment: ITC, Hst1 titrated into the C-terminal TMEM97 peptide (taken as 144-176)
[8] = target: T2, Synthetic TMEM97 (108-176) peptide; experiment: SPR
[9] = target: T5, Synthetic TMEM97 (108-143) peptide; experiment: SPR
T5 construct: Synthetic peptide; also called (predicted) luminal segment
T5 peptide: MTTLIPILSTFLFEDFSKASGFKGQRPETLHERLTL

[10] = target: T3, Synthetic TMEM97 (144-176) peptide; experiment: SPR
[11] = target: T4, GST-TMEM97 (108-176), recombinant from …; experiment: SPR
[12] = target: T3, Synthetic TMEM97 (144-176) peptide; experiment: SPR, synthetic TMEM97 (144-176) immobilized, Hst1 as analyte; SPR; synthetic TMEM97 (144-176)
[13] = target: T2, Synthetic TMEM97 (108-176) peptide; experiment: ITC, Hst1 titrated into synthetic TMEM97 (108-176)
[14] = target: T2, Synthetic TMEM97 (108-176) peptide; experiment: SPR, synthetic TMEM97 (108-176) immobilized, Hst1 as analyte; SPR; synthetic TMEM97 (108-176)
[15] = target: T6, Recombinant full-length TMEM97 (from HEK293 cells, OriGene) (UniProt Q5BJF2 1-176); experiment: SPR, TMEM97 immobilized on CM5 chip
T6 construct: Bought protein, said to be full-length; Immobilized on a CM5 chip; also called MAC30

T1 sequence (Q5BJF2 whole entry, species assumed): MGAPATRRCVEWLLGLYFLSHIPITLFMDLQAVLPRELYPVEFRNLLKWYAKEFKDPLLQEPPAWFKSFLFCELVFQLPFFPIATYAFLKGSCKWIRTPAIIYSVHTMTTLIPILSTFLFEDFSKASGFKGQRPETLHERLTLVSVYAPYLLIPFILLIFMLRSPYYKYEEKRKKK

For CC(C)C[C@H](NC(=O)[C@H](Cc1ccc(O)cc1)NC(=O)[C@H](CC(N)=O)NC(=O)[C@H](CO)NC(=O)[C@H](CCCNC(=N)N)NC(=O)[C@H](Cc1ccc(O)cc1)NC(=O)CNC(=O)[C@H](CCCNC(=N)N)NC(=O)[C@H](Cc1c[nH]cn1)NC(=O)[C@H](CO)NC(=O)[C@H](Cc1c[nH]cn1)NC(=O)[C@H](Cc1c[nH]cn1)NC(=O)[C@H](CCCCN)NC(=O)[C@H](CCC(=O)O)NC(=O)[C@H](Cc1c[nH]cn1)NC(=O)[C@H](Cc1ccccc1)NC(=O)[C@H](CCCCN)NC(=O)[C@H](CCCNC(=N)N)NC(=O)[C@H](CCCCN)NC(=O)[C@H](Cc1ccc(O)cc1)NC(=O)CNC(=O)[C@H](Cc1c[nH]cn1)NC(=O)[C@H](Cc1c[nH]cn1)NC(=O)[C@H](CCCNC(=N)N)NC(=O)[C@H](CCCCN)NC(=O)[C@H](C)NC(=O)[C@H](Cc1c[nH]cn1)NC(=O)[C@H](CO)NC(=O)[C@@H](N)CC(=O)O)C(=O)N[C@@H](Cc1ccc(O)cc1)C(=O)N[C@@H](CC(=O)O)C(=O)N[C@@H](CC(N)=O)C(=O)O [Hst3], the Ki [1] was 1090 nM.

For C[C@H](NC(=O)[C@H](Cc1c[nH]cn1)NC(=O)[C@H](CO)NC(=O)[C@@H](N)CC(=O)O)C(=O)N[C@@H](CCCCN)C(=O)N[C@@H](CCCNC(=N)N)C(=O)N[C@@H](Cc1c[nH]cn1)C(=O)N[C@@H](Cc1c[nH]cn1)C(=O)NCC(=O)N[C@@H](Cc1ccc(O)cc1)C(=O)N[C@@H](CCCCN)C(=O)N[C@@H](CCCNC(=N)N)C(=O)N[C@@H](CCCCN)C(=O)N[C@@H](Cc1ccccc1)C(=O)N[C@@H](Cc1c[nH]cn1)C(=O)N[C@@H](CCC(=O)O)C(=O)N[C@@H](CCCCN)C(=O)N[C@@H](Cc1c[nH]cn1)C(=O)N[C@@H](Cc1c[nH]cn1)C(=O)N[C@@H](CO)C(=O)N[C@@H](Cc1c[nH]cn1)C(=O)N[C@@H](CCCNC(=N)N)C(=O)NCC(=O)N[C@@H](Cc1ccc(O)cc1)C(=O)O [Hst5], the “BAK-induced loss of cell viability” value [2] was “abrogated”, the “calcium signaling (relative fluorescence intensity)” value ([3]; 1, 2 and 4 hours) was “increases calcium signaling” and the “elevated calcium levels after benzalkonium chloride” value ([3]; cells treated with 0.001% BAK) was “reduced elevated calcium levels”. For the same molecule, the “hyperosmolarity-induced apoptotic signals (Caspase 3/7)” value (human corneal epithelium) was “abrogates the effects of toxic hyperosmolarity” and the Ki [1] was 582 nM.

In the case of “AKRHHGYKRKFH [Histatin P-113, histatin-derived antimicrobial peptide]”, the fungicidal activity (Candida albicans) is given as “fungicidal activity”.

For “fluorescent dye-coupled synthetic Hst1: synthetic Hst1 coupled with ALEXA FLUOR 488 NHS Ester (D[pS]HEKRHHGYRRKFHEKHHSHREFPFYGDYGSNYLYDN; also: coupled with Alexa Fluor 488 NHS ester, site not given here; UniProt P15515 20-57, looked up)”, the internalization into cells (HCE cells) was “internalized into HCE cells”.

B1: Histatin 1 (Hst1) (peptide)
peptide: D[pS]HEKRHHGYRRKFHEKHHSHREFPFYGDYGSNYLYDN
notes: Synthetic linear peptide made by Fmoc solid-phase synthesis; also called Hst1(1-38); H1
Work on B1 yielded a Kd [4] of 890 nM, a Kd [5] of 460 nM and a Kd [6] of 1600 nM. It also gave a ΔH [7] of -790 kcal/mol, a ΔS [7] of -2280 cal/mol K and a Kd [8] of 2400 nM. The binding result [9] was “no binding”, the Kd [10] was 2400 nM and the Kd [11] was 1500 nM. For the same molecule, the Kd [12] was 2700 nM, the ΔH [13] was -4.9 kcal/mol and the ΔS [13] was 11.6 cal/mol K. The Kd [14] was 2800 nM.

B2: Hst1(1-26) (peptide)
peptide: DSHEKRHHGYRRKFHEKHHSHREFPF
modifications: not fully specified (residue 2); ends and bridges not checked
notes: Fragment of Hst1
For B2, the Kd [8] was 1300 nM, the binding result [9] was “no binding” and the Kd [10] was 1700 nM. It also gave a Kd [11] of 2100 nM.

B3: Hst1(1-19) (peptide)
peptide: DSHEKRHHGYRRKFHEKHH
modifications: not fully specified (residue 2); ends and bridges not checked
For B3, the Kd [8] was 12700 nM, the Kd [10] was 8800 nM and the Kd [11] was 3600 nM.

B4: Hst1 scrambled peptide (Hst1SP) (peptide)
peptide: HYHKFHRYYDPGSNLYKEHNHGFHHGYKDEFRRE[pS]RDS
notes: Synthetic scrambled control of Hst1; also called scrambled peptide control version of Hst1
B4: no binding [15].

B5: Hst1(1-14) (peptide)
peptide: DSHEKRHHGYRRKF
modifications: not fully specified (residue 2); ends and bridges not checked
notes: Fragment of Hst1
B5: no binding [8]; no binding [9]; no binding [10].
